# Data reported in the Immune Epitope Database (IEDB).
# Columns and labels:
# Assay in all cases: IEDB peptide-MHC binding, purified MHC/competitive/radioactivity; filed as Kd, often an IC50 or EC50 that approximates it; ≥ and ≤ were set here for values at or beyond the usual limits of such assays
# HLA-A*68:01 = biological target: HLA-A*68:01
# HLA-A*31:01 = biological target: HLA-A*31:01
# HLA-A*03:01 = biological target: HLA-A*03:01
# HLA-A*11:01 = biological target: HLA-A*11:01
# HLA-A*33:01 = biological target: HLA-A*33:01
# [1] = source organism: SARS coronavirus Tor2
# [2] = source organism: Vaccinia virus WR
# [3] = source organism: Dengue virus 2 Jamaica/1409/1983
# [4] = source organism: Dengue virus 1 Brazil/97-11/1997
# [5] = source organism: Mammarenavirus guanaritoense
# [6] = source organism: Mammarenavirus brazilense
# [7] = source organism: Dengue virus 4 Philippines/H241/1956
# [8] = source organism: Dengue virus 3 Martinique/1243/1999
# [9] = source organism: Lymphocytic choriomeningitis virus (strain Armstrong)
Sequence,Kd (HLA-A*68:01; [2]) [nM],Kd (HLA-A*31:01; [2]) [nM],Kd (HLA-A*03:01; [2]) [nM],Kd (HLA-A*11:01; [2]) [nM],Kd (HLA-A*33:01; [2]) [nM],other results
AFHTPAFDK,–,–,–,–,–,Kd (HLA-A*68:01; [1]): 8590 nM; Kd (HLA-A*31:01; [1]): 5640 nM; Kd (HLA-A*03:01; [1]): 1430 nM; Kd (HLA-A*11:01; [1]): 957 nM; Kd (HLA-A*33:01; [1]): ≥ 33200 nM
AFLLRHYYNK,5340,23.8,749,225,1910,–
ALNDTWKMEK,–,–,–,–,–,Kd (HLA-A*03:01; [3]): 82.4 nM; Kd (HLA-A*11:01; [3]): 392 nM
ATCVYNMMGK,–,–,–,–,–,Kd (HLA-A*03:01; [4]): 1.91 nM; Kd (HLA-A*11:01; [4]): 20.1 nM
CAVHLIIYY,24.5,4950,10100,788,≥ 21100,–
CCNWLDRCR,–,–,–,–,–,Kd (HLA-A*68:01; [5]): ≥ 77600 nM; Kd (HLA-A*31:01; [5]): 13500 nM; Kd (HLA-A*03:01; [5]): ≥ 78000 nM; Kd (HLA-A*11:01; [5]): 18100 nM; Kd (HLA-A*33:01; [5]): ≥ 56800 nM
CSSLTEEFYH,–,–,–,–,–,Kd (HLA-A*68:01; [6]): ≥ 31900 nM; Kd (HLA-A*31:01; [6]): 3360 nM; Kd (HLA-A*11:01; [6]): 8680 nM
DIEIGNFYIR,49,822,845,10400,129,–
DQDALFAYTK,–,–,–,–,–,Kd (HLA-A*68:01; [1]): 1270 nM; Kd (HLA-A*31:01; [1]): 3720 nM; Kd (HLA-A*03:01; [1]): 4250 nM; Kd (HLA-A*11:01; [1]): 2600 nM; Kd (HLA-A*33:01; [1]): 9570 nM
DSMDVLAEK,0.122,988,404,1.73,1.81,–
DTSEKYSKGY,533,≥ 70000,≥ 70100,886,≥ 70000,–
DTTPFGQQR,–,–,–,–,–,Kd (HLA-A*68:01; [7]): 91 nM; Kd (HLA-A*33:01; [7]): 94.5 nM
EFGRAKGSR,–,–,–,–,–,Kd (HLA-A*33:01; [7]): 38.1 nM
ELRRAAIDR,83.2,18100,≥ 78000,≥ 77900,1090,–
ELTLDCEPR,–,–,–,–,–,Kd (HLA-A*68:01; [7]): 229 nM; Kd (HLA-A*33:01; [7]): 32 nM
EQLSKYVEK,161,506,149,9.75,832,–
ESIEDKFDY,1720,≥ 34500,7530,11300,≥ 77700,–
ESRPFDLIK,22.1,17900,8370,1320,3400,–
ETFKIDAVRY,46.9,≥ 41300,≥ 70100,≥ 25100,≥ 70000,–
ETSPGEIKPK,47.5,≥ 70000,≥ 35000,1520,≥ 61900,–

Sequence,Kd (HLA-A*68:01; [2]) [nM],Kd (HLA-A*31:01; [2]) [nM],Kd (HLA-A*03:01; [2]) [nM],Kd (HLA-A*11:01; [2]) [nM],Kd (HLA-A*33:01; [2]) [nM],other results
FFTASLFLH,–,–,–,–,–,Kd (HLA-A*11:01; source organism: Mammarenavirus juninense): 247 nM
FFTTSLFLH,–,–,–,–,–,Kd (HLA-A*68:01; [5]): ≥ 24800 nM; Kd (HLA-A*31:01; [5]): 1190 nM; Kd (HLA-A*03:01; [5]): ≥ 55700 nM; Kd (HLA-A*11:01; [5]): ≥ 77900 nM; Kd (HLA-A*33:01; [5]): ≥ 77700 nM
FLEFSNRVY,10100,1330,43.5,3210,8430,–
FLKDDTLSK,638,≥ 77900,347,≥ 10000,≥ 30700,–
FLKEQHCQK,–,–,–,–,–,Kd (HLA-A*68:01; [1]): 1320 nM; Kd (HLA-A*31:01; [1]): 802 nM; Kd (HLA-A*03:01; [1]): 193 nM; Kd (HLA-A*11:01; [1]): 15400 nM; Kd (HLA-A*33:01; [1]): 643 nM
FLLNKEMYLK,–,–,–,–,–,Kd (HLA-A*68:01; [1]): 986 nM; Kd (HLA-A*31:01; [1]): 2080 nM; Kd (HLA-A*03:01; [1]): 59.5 nM; Kd (HLA-A*11:01; [1]): 153 nM; Kd (HLA-A*33:01; [1]): 2510 nM
FVFPLNSKVK,–,–,–,–,–,Kd (HLA-A*68:01; [1]): 8.76 nM; Kd (HLA-A*31:01; [1]): 12800 nM; Kd (HLA-A*03:01; [1]): 164 nM; Kd (HLA-A*11:01; [1]): 113 nM; Kd (HLA-A*33:01; [1]): 16700 nM
GAMLFLISGK,–,–,–,–,–,Kd (HLA-A*03:01; [8]): 3.85 nM; Kd (HLA-A*11:01; [8]): 42.6 nM
GTSIFAGHLK,–,–,–,–,–,Kd (HLA-A*68:01; [8]): 114 nM; Kd (HLA-A*03:01; [8]): 3.86 nM; Kd (HLA-A*11:01; [8]): 23.5 nM
GVVREFLTR,–,–,–,–,–,Kd (HLA-A*68:01; [1]): 186 nM; Kd (HLA-A*31:01; [1]): 899 nM; Kd (HLA-A*03:01; [1]): 19000 nM; Kd (HLA-A*11:01; [1]): 522 nM; Kd (HLA-A*33:01; [1]): 13200 nM
HINTLIQYR,14.8,6.05,191,197,16.5,–
HMIVSKQER,–,–,–,–,–,Kd (HLA-A*31:01; [4]): ≥ 77900 nM; Kd (HLA-A*33:01; [4]): 8610 nM
IILAALFMYY,1480,≥ 70000,679,740,≥ 70000,–
IITSTKTIEY,5720,6630,82.2,917,14100,–
ILKRWGQLKK,–,–,–,–,–,Kd (HLA-A*03:01; [7]): 38.5 nM
IMASLVLAR,–,–,–,–,–,Kd (HLA-A*68:01; [1]): 28.4 nM; Kd (HLA-A*31:01; [1]): 18 nM; Kd (HLA-A*03:01; [1]): 10.6 nM; Kd (HLA-A*11:01; [1]): 104 nM; Kd (HLA-A*33:01; [1]): 560 nM
IMFMLIFNVK,136,663,157,200,1220,–
ISDYSAEVER,229,1730,≥ 23400,3840,1360,–
IVTCAMFTCK,–,–,–,–,–,Kd (HLA-A*03:01; [3]): 362 nM; Kd (HLA-A*11:01; [3]): 352 nM
IVTMFEALPH,–,–,–,–,–,Kd (HLA-A*68:01; [9]): 5840 nM; Kd (HLA-A*31:01; [9]): ≥ 70000 nM; Kd (HLA-A*33:01; [9]): 75.1 nM
